Test results from article PMC10859935, “Surface Charge Can Modulate Phase Separation of Multidomain Proteins” (Journal of the American Chemical Society, 2024).

Tests used:
[1] = target: small ubiquitin-like modifier protein 1 (SUMO1) domain, wild type (UniProt P63165); assay: static light scattering (second virial coefficient A2); pH 8.0; 25 °C; 20 mM HEPES, 150 mM KCl, 1 mM MgCl2, 1 mM DTT, 1 mM EGTA; A2 from the slope of scattering intensity versus concentration
[2] = target: small ubiquitin-like modifier protein 1 (SUMO1) domain, wild type (UniProt P63165); assay: static light scattering (second virial coefficient A2); pH 6.5; 25 °C; A2 from the slope of scattering intensity versus mass concentration; weak self-association of a single domain
[3] = target: polySIM (protein consisting of 10 SIMs derived from the PIASx protein)
[4] = target: T1, small ubiquitin-like modifier protein 1 (SUMO1) domain, wild type (UniProt P63165 1-97); assay: ITC; 50–100 μM SIM peptide in the cell, SUMO in the syringe; 25 °C; 20 mM HEPES (pH 7.0 or 8.0) or 20 mM MES (pH 6.5), 150 mM KCl, 1 mM MgCl2, 1 mM DTT, 1 mM EGTA; 1:1 binding model; conditions: both partners purified
T1 construct: SUMO1, single domain; also called WT SUMO; WT SUMO1; source: BL21(DE3) T1R cells, purified (Ni-NTA, TEV cleavage, Source15Q, Superdex200); not shown: His8, N-terminal, cleaved
T1 sequence (P63165 1-97): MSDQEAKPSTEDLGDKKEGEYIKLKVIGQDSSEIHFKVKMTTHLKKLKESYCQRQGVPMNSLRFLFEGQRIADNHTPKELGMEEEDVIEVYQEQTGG

Molecule: small ubiquitin-like modifier protein 1 (SUMO1) domain, wild type (from UniProt P63165 1-97) (natural protein)
- A2 (second virial coefficient) [1]: 0.00012 mol mL g^–2
- A2 (second virial coefficient) [2]: -0.00012 mol mL g^–2

Molecule: polySUMO (synthetic protein consisting of five SUMO domains)
- phase-separation threshold (module concentration, equimolar modules) by turbidity at 340 nm, pH 6 [3]: 75 μM
- phase-separation threshold (module concentration, equimolar modules) by turbidity at 340 nm, pH 6.5 [3]: 100 μM
- phase-separation threshold (module concentration, equimolar modules) by turbidity at 340 nm, pH 7 [3]: 150 μM
- phase-separation threshold (module concentration, equimolar modules) by turbidity at 340 nm, pH 8 [3]: 300 μM

B1: SUMO interaction motif (SIM) peptide derived from the PIASx protein (peptide)
chain: KVDVIDLTIESSSDEEEDPPAKR
- Kd [4]: 15 to 20 µM
